Data on 1 molecule can be found in PMC9489729 (2022).

Experiment [1] has as its target T1, C-terminally His-tagged RavA (E. coli, UniProt P31473 1-498). The experiment can be described thus: BLI; no nucleotide, pH 7.5. In general terms: In BLI a coated tip is dipped into the sample, and binding shifts an interference pattern.
Experiment [2] concerns the target T1, C-terminally His-tagged RavA. Briefly: BLI; + ATP, KD1 (2:1 heterogeneous ligand model), pH 7.5.
Experiment [3] shares this target. Briefly: BLI; + ATP, KD2 second site (2:1 heterogeneous ligand model), pH 7.5.
The target is the same in experiment [4]. Briefly: BLI; + ADP, pH 7.5.

T1 sequence (P31473 whole entry): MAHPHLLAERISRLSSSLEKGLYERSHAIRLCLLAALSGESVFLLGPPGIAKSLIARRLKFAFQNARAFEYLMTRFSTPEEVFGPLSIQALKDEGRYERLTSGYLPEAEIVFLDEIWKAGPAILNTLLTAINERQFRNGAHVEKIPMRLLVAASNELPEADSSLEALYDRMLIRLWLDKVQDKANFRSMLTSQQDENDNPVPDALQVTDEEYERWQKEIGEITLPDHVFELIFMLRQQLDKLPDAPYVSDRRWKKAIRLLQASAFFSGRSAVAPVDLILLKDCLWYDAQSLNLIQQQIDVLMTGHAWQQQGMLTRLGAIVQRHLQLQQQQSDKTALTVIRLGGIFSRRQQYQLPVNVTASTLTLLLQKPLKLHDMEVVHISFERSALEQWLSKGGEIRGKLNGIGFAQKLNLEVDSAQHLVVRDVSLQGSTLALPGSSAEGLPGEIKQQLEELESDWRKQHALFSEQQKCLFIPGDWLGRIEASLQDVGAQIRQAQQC

B1: His-NTV-AviTag (domain or fragment)
chain: MLTLDTLNVMLAVSEEGLIEEMIIALLASPQLAVFFEKFPRLKAAITDDVPRWREALRSRLKDARVPPELTEEVMCYQQSQLLSTPQFIVQLPQILDLLHRLNSPWAEQARQLVDANSTITSALHTLFLQRWRLSLIVQATTLNQQLLEEEREQLLSEVQERMTLSGQLEPILADNNTAAGRLWDMSAGQLKRGDYQLIVKYGEFLNEQPELKRLAEQLGRSREAKSIPRNDAQMETFRTMVREPATVPEQVDGLQQSDDILRLLPPELATLGITELEYEFYRRLVEKQLLTYRLHGESWREKVIERPVVHKDYDEQPR
modifications: biotinylated for the BLI binding studies (50 μM D-biotin added to the LB medium during expression)
For B1, the Kd in experiment [1] was found to be 33.3 µM; in experiment [2], 13.1 µM; in experiment [3], 4.8 µM; in experiment [4] it was 12.4 µM.

Broadly, the Kd is the constant that tells how readily two partners part at equilibrium.
